Measured values taken from US20190300590A1 (PROTAGONIST THERAPEUTICS, published 2019).
*1 amine or outer side, *2 acyl side, *3 side chain or, on linkers, in order; H or OH if unused. Bridges are numbered along the chain shown (N, C = ends). Primed or numbered codes have the meaning given here. [ ]: non-standard residue; d: D form. Phe(4-OMe)(3) = O-methyl-L-tyrosine (4-methoxy-L-phenylalanine), COc1ccc(C[C@H](N[*:1])C(=O)[*:2])cc1; Phe(4-OMe) = 4-methoxy-L-phenylalanine (O-methyl-L-tyrosine), COc1ccc(C[C@H](N[*:1])C(=O)[*:2])cc1; Phe(3,4-(OMe)2) = COc1ccc(C[C@H](N)C(=O)O)cc1OC; Phe(3,4-Cl2) = N[C@@H](Cc1ccc(Cl)c(Cl)c1)C(=O)O; Phe(3,4-F2) = N[C@@H](Cc1ccc(F)c(F)c1)C(=O)O; 1Nal = N[C@@H](Cc1cccc2ccccc12)C(=O)O; 2Nal = N[C@@H](Cc1ccc2ccccc2c1)C(=O)O; AEF = NCCOc1ccc(C[C@H](N)C(=O)O)cc1; αMeL = CC(C)C[C@](C)(N)C(=O)O; Chg = N[C@H](C(=O)O)C1CCCCC1; hLeu = CC(C)CC[C@H](N)C(=O)O; αMeK = C[C@](N)(CCCCN)C(=O)O; Abu = CC[C@H](N)C(=O)O; Dap = NC[C@H](N)C(=O)O; Aib = CC(C)(N)C(=O)O

T1: IL-23R on human cells (IL-23R-expressing DB cells; human NK cells) (human, UniProt Q5VWK5 24-629)
T1 sequence (looked up): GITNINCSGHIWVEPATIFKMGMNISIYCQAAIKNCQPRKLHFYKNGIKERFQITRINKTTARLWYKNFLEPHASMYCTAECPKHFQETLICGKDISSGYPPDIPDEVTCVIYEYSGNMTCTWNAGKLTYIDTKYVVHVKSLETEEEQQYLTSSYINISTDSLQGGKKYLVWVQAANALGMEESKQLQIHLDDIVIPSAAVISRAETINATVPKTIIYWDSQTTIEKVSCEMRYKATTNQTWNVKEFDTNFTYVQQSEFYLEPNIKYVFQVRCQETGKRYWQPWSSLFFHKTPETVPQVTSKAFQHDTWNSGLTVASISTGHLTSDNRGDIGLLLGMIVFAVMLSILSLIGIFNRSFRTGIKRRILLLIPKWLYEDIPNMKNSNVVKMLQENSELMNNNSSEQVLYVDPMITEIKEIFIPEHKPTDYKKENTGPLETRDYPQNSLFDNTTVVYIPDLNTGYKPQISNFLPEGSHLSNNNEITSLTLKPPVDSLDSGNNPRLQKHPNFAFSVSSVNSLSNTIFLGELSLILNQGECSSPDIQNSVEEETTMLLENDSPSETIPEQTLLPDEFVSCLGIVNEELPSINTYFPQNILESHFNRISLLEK

T2: IL23R_huFC (human, UniProt Q5VWK5 24-353)
T2 sequence (looked up): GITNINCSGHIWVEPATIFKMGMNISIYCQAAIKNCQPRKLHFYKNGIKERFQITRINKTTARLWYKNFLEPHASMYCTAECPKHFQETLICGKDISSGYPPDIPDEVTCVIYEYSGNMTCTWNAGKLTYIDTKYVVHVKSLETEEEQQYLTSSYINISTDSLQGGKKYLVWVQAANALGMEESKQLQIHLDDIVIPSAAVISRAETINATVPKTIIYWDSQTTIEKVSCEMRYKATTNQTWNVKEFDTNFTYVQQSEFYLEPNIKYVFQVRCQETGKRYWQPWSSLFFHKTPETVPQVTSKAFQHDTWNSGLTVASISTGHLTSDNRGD

T3: IL23R_huFC (human, UniProt Q5VWK5 24-353)
T3 sequence (looked up): T2 sequence (looked up)

B1: Ac-CADWVCY-[1-Nal]-VTFG-NH2 (peptide)
peptide: Ac-CADWVCY[1Nal]VTFG-NH2
modifications: disulfide 1-6
SMILES: CC(=O)N[C@H]1CSSC[C@@H](C(=O)N[C@@H](Cc2ccc(O)cc2)C(=O)N[C@@H](Cc2cccc3ccccc23)C(=O)N[C@H](C(=O)N[C@H](C(=O)N[C@@H](Cc2ccccc2)C(=O)NCC(N)=O)[C@@H](C)O)C(C)C)NC(=O)[C@H](C(C)C)NC(=O)[C@H](Cc2c[nH]c3ccccc23)NC(=O)[C@H](CC(=O)O)NC(=O)[C@H](C)NC1=O

Target: T1, IL-23R on human cells …
Experiment: cell-based or functional assay

Row | pStat3 HTRF IC50 | Binder
1 | < 10 nM | Ac-[Abu]QTWQC[AEF][Phe(3,4-Cl2)][Aib]ENN-NH2 (thioether 1-6) [Ac-Cyclo-[[Abu]-QTWQC]-[Phe[4-(2-aminoethoxy)]]-[Phe(3,4-Cl2)]-[Aib]-ENN-NH2]

Target: T2, IL23R_huFC
Experiment: IL23-IL23R competitive ELISA

Row | IC50 | Binder
2 | 500 to 1000 nM | Ac-GDHKCSSWECYWHTFG-NH2 (disulfide 5-10 (inferred)) [Ac-GDHKCSSWECYWHTFG-NH2]
3 | 500 to 1000 nM | Ac-REGTCSTWKCYWHTFG-NH2 (disulfide 5-10 (inferred)) [Ac-REGTCSTWKCYWHTFG-NH2]
4 | 500 to 1000 nM | B1
5 | 500 to 1000 nM | Ac-GSVHCMTWECYWHTFG-NH2 (disulfide 5-10 (inferred)) [Ac-GSVHCMTWECYWHTFG-NH2]
6 | 500 to 1000 nM | Ac-DTPRCRTWECYWHTFG-NH2 (disulfide 5-10 (inferred)) [Ac-DTPRCRTWECYWHTFG-NH2]
7 | 500 to 1000 nM | Ac-GGGECENWECYWHTFG-NH2 (disulfide 5-10 (inferred)) [Ac-GGGECENWECYWHTFG-NH2]

Target: T3, IL23R_huFC
Experiment: human ELISA vs IL-23

Row | IC50 | Binder
8 | 25 to 100 nM | Ac-[Abu]QTWQC[Phe(4-OMe)][2Nal][αMeL]ENG[dK]-NH2 (thioether 1-6) [Ac-Cyclo-[[Abu]-QTWQC]-[Phe(4-OMe)]-[2-Nal]-[α-MeLeu]-ENG-[(D)Lys]-NH2]
9 | 25 to 100 nM | Ac-[Abu]QTWQC[AEF]W[Chg]K(Ac)NG-NH2 (thioether 1-6) [Ac-Cyclo-[[Abu]-QTWQC]-[Phe[4-(2-aminoethoxy)]]-W-Chg-[Lys(Ac)]-NG-NH2]
10 | 25 to 100 nM | Ac-[Abu]QTWQC[AEF][Phe(3,4-(OMe)2)][Aib]ENG-NH2 (thioether 1-6) [Ac-Cyclo-[[Abu]-QTWQC]-[Phe[4-(2-aminoethoxy)]]-[Phe(3,4-OMe2)]-[Aib]-ENG-NH2]
11 | 25 to 100 nM | Ac-[Abu]QTWQC[AEF][Phe(3,4-Cl2)][Aib]ENN-NH2 (thioether 1-6) [Ac-Cyclo-[[Abu]-QTWQC]-[Phe[4-(2-aminoethoxy)]]-[Phe(3,4-Cl2)]-[Aib]-ENN-NH2]
12 | 25 to 100 nM | Ac-[Abu]QTWQC[Phe(4-OMe)(3)][2Nal][αMeK]K(Ac)NGGE-NH2 (thioether 1-6) [Ac-Cyclo-[[Abu]-QTWQC]-[Phe(4-OMe)]-[2-Nal][α-MeLys]-[Lys(Ac)]-NGGE-NH2]
13 | 25 to 100 nM | XQTWQCFWXENG (as bracketed in name; thioether cyclo) [Ac-Cyclo-[[Abu]-QTWQC]-[Phe[4-(2-aminoethoxy)]]-W-[Orn]-ENG-NH2]
14 | 25 to 100 nM | Ac-[Abu]QTWQC[Phe(4-OMe)(3)][2Nal][Chg]K(Ac)NG-NH2 (thioether 1-6) [Ac-Cyclo-[[Abu]-QTWQC]-[Phe(4-OMe)]-[Nal]-[Chg]-[Lys(Ac)]-NG-NH2]
15 | 25 to 100 nM | Ac-[Abu]QTWQC[AEF][1Nal][Aib]K(Ac)NG-NH2 (thioether 1-6) [Ac-Cyclo-[[Abu]-QTWQC]-[Phe[4-(2-aminoethoxy)]]-1-Nal[Aib]-[Lys(Ac)]-NG-NH2]
16 | 25 to 100 nM | Ac-[Abu][Dap]TWQC[AEF][Phe(3,4-Cl2)][αMeK]K(Ac)NG-NH2 (thioether 1-6) [Ac-Cyclo-[[Abu]-DapTWQC]-[Phe[4-(2-aminoethoxy)]]-[Phe(3,4-Cl2)]-[α-MeLys]--[Lys(Ac)]-NG-NH2]
17 | 25 to 100 nM | Ac-[Abu]QTWQC[Phe(3,4-F2)][2Nal][Aib]ENG-NH2 (thioether 1-6) [Ac-Cyclo-[[Abu]-QTWQC]-[Phe(3,4-F2)]-[2-Nal]-[Aib]-ENG-NH2]
18 | 25 to 100 nM | Ac-[Abu]QTWQCYW[hLeu]ENG-NH2 (thioether 1-6) [Ac-Cyclo-[[Abu]-QTWQC]-YW-[hLeu]-ENG-NH2]
